Measured values as given in patent publication US20160009772A1 (published 2016).
Primed or numbered codes have the meaning given here. FITC′ = fluorescein isothiocyanate; Ahx = NCCCCCC(=O)O

Biological target: N-terminal His (six histadine)-tagged IRF5 (222-425) SEQ ID NO 22 (UniProt Q13568 222-425)
Assay: TR-FRET

N-terminal His (six histadine)-tagged IRF5 (222-425) SEQ ID NO 22, sequence (Q13568 other isoform, or with tags, fused parts or gaps): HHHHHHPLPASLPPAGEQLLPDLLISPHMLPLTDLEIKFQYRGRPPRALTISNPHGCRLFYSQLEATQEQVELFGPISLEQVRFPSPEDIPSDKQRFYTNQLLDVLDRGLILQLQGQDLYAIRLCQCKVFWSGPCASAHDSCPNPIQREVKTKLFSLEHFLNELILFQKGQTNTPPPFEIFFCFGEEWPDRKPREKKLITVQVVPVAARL

Kd | Binder
930 nM | {FITC′-Ahx}-IRLQISNPYLKFIPLKRAIWLIK-NH2 [FITC-Aha-IRLQISNPYLKFIPLKRAIWLIK-NH2 (SEQ ID NO: 16)]
530 nM | {FITC′-Ahx}-MIILIISFPKHKDWKVILVK-NH2 [FITC-Aha-MIILIISFPKHKDWKVILVK-NH2 (SEQ ID NO: 17)]
